Data taken from the supplement of paper PMC10065799, “High-throughput profiling of sequence recognition by tyrosine kinases and SH2 domains using bacterial peptide display” (eLife, 2023).

Legend:
[1] = test system: AncSZ; assay: phosphorylation enrichment, bacterial display (enrichment ratio); higher = better substrate or ligand; peptides without Tyr show the background
[2] = molecular target: EPHB1 (UniProt P54762); assay: as above
[3] = molecular target: EPHB2 (UniProt P29323); assay: as above
[4] = molecular target: FGFR1 (UniProt P11362); assay: as above
[5] = molecular target: FGFR3 (UniProt P22607); assay: as above
[6] = test system: Fer (mouse); assay: as above
[7] = molecular target: Fes (UniProt P07332); assay: as above
[8] = molecular target: Fyn (UniProt P06241); assay: as above
[9] = molecular target: Hck (UniProt P08631); assay: as above
[10] = molecular target: Jak2 (UniProt O60674); assay: as above
[11] = molecular target: MERTK (UniProt Q12866); assay: as above
[12] = test system: c-Abl (mouse); assay: as above
[13] = test system: c-Src; assay: as above
[14] = molecular target: Grb2 SH2 (UniProt P62993); assay: SH2 binding enrichment of the phosphorylated peptide, bacterial display (enrichment ratio); higher = better substrate or ligand; peptides without Tyr show the background
[15] = molecular target: SHP2-C SH2; assay: as above
[16] = molecular target: c-Src SH2; assay: as above
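For SH2 binding enrichment of the phosphorylated peptide, bacterial display in this document: peptide library displayed on the E. coli surface as eCPX fusions, selected cells deep-sequenced, score is each peptide's frequency after selection divided by its frequency in the input.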
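For phosphorylation enrichment, bacterial display in this document: 11-residue human phosphosite peptides and single-mutation variants displayed on the E. coli surface, counted by deep sequencing, each peptide's frequency after selection divided by its frequency in the unselected input library; frequency after pTyr selection over input frequency; kinase dosed for 20-30% of maximal phosphorylation in three min.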

Chain of MERTK (Q12866 whole entry, looked up): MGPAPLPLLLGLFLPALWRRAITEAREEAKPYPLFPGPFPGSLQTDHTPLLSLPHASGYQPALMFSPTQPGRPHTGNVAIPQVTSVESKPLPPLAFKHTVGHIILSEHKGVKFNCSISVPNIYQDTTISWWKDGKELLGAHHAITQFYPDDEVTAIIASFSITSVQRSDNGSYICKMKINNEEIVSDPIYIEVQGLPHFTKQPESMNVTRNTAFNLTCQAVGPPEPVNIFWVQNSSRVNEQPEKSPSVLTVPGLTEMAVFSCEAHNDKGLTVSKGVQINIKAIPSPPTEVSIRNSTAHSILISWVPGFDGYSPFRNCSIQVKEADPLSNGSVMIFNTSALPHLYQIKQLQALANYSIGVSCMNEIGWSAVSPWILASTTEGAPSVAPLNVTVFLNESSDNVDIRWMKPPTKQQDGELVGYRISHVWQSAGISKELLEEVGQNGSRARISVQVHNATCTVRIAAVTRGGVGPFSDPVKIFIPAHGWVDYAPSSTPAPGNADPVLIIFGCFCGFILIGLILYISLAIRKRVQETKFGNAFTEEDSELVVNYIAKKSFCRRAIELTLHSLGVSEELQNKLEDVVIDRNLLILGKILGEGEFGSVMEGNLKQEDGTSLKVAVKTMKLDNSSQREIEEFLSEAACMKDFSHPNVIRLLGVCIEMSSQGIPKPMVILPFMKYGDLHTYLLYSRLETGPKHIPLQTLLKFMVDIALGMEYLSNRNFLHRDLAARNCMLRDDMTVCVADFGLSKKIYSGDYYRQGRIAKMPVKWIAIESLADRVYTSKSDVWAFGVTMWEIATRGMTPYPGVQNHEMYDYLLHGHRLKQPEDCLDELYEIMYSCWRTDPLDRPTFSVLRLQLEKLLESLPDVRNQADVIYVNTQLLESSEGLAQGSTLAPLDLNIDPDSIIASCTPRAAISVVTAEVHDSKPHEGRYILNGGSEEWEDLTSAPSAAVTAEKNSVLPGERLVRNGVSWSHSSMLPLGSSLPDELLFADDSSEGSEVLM
Chain of FGFR1 (P11362 whole entry, looked up): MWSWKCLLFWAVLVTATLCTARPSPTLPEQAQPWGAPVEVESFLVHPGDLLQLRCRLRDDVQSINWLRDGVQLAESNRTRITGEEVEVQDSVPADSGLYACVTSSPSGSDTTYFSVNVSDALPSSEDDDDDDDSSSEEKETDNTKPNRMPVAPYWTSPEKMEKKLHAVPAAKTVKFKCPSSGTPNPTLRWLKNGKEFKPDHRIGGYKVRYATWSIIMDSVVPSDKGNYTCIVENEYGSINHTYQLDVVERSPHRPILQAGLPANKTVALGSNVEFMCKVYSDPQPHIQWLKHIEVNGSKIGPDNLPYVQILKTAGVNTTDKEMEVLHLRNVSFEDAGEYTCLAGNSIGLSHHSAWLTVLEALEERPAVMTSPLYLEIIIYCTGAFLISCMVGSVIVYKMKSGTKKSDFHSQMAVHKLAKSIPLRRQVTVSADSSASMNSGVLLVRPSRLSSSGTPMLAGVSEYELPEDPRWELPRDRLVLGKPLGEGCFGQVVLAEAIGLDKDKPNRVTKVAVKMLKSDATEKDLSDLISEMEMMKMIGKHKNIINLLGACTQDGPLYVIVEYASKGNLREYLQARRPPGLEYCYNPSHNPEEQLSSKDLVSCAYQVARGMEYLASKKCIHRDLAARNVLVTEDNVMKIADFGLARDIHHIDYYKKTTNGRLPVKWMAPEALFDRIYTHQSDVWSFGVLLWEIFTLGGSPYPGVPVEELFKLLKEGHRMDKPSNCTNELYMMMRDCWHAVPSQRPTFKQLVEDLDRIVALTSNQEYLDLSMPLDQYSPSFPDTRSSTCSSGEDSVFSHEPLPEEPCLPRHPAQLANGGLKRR
Chain of Fyn (P06241 whole entry, looked up): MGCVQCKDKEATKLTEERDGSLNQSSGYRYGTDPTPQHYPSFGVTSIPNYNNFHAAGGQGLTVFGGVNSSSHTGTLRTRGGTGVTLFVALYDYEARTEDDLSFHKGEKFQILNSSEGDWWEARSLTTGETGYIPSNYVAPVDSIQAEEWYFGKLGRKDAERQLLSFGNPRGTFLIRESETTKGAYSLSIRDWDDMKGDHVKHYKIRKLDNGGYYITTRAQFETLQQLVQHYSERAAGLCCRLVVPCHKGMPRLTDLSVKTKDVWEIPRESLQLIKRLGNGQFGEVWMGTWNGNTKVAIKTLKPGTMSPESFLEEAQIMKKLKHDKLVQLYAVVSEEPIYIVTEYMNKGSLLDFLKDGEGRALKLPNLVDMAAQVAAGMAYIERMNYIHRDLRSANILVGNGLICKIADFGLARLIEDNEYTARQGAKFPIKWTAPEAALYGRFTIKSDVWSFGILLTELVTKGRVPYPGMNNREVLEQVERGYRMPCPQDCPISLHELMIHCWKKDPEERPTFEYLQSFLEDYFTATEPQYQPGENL
Chain of EPHB2 (P29323 whole entry, looked up): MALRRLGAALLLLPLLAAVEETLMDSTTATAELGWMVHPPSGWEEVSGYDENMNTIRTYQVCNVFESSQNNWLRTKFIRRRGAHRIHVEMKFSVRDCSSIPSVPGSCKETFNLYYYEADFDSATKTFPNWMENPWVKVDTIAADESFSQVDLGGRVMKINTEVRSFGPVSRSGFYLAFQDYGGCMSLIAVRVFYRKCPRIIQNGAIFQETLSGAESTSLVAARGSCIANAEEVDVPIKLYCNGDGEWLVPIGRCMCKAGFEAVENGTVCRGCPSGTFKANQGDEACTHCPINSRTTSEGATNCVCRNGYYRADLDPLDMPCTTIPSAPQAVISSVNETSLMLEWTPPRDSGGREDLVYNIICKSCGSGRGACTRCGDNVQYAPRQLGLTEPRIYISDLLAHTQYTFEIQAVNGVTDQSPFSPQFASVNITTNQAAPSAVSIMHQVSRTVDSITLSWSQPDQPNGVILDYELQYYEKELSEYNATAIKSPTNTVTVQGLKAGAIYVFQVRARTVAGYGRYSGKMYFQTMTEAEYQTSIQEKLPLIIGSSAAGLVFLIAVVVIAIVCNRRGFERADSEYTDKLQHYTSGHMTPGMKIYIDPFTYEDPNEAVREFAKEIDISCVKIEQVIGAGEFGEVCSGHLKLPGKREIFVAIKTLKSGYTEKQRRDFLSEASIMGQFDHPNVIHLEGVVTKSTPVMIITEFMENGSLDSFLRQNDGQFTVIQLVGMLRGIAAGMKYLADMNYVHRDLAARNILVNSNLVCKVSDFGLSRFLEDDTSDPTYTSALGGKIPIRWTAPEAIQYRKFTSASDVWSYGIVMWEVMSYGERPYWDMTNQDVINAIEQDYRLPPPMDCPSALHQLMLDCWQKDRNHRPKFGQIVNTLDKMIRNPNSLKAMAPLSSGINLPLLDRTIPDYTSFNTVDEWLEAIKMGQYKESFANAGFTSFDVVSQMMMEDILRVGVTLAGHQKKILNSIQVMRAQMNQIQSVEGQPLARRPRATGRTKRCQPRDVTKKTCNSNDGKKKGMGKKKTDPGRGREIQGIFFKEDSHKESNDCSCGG
Chain of Jak2 (O60674 whole entry, looked up): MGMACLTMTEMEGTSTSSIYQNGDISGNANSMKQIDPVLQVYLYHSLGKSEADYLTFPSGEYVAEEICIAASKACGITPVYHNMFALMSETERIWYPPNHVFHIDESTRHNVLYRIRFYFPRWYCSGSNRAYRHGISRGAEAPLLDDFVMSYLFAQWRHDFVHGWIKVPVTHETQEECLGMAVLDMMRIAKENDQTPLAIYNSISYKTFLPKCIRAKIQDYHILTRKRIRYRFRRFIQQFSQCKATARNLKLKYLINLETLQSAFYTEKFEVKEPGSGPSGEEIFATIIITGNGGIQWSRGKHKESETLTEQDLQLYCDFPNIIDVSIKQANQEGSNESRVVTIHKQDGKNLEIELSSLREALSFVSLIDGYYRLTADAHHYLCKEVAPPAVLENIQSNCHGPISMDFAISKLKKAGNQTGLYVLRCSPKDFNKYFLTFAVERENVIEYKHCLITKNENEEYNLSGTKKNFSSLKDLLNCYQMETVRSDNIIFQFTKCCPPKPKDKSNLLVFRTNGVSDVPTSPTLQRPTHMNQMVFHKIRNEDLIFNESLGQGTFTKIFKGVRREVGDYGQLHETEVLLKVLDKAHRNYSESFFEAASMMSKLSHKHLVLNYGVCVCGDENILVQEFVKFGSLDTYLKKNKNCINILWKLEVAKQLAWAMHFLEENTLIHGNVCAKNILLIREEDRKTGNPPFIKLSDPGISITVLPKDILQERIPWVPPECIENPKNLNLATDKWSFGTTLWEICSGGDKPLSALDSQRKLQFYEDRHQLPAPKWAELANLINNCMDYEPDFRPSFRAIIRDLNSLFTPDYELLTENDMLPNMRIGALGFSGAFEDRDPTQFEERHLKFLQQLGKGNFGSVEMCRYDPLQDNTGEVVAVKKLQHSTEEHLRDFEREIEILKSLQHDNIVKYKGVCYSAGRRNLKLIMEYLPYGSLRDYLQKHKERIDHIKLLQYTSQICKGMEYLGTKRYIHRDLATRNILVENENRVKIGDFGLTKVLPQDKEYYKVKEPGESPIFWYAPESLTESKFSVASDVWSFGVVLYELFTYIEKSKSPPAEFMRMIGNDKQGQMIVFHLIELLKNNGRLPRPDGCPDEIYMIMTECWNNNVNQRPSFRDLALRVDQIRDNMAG
Chain of Hck (P08631 whole entry, looked up): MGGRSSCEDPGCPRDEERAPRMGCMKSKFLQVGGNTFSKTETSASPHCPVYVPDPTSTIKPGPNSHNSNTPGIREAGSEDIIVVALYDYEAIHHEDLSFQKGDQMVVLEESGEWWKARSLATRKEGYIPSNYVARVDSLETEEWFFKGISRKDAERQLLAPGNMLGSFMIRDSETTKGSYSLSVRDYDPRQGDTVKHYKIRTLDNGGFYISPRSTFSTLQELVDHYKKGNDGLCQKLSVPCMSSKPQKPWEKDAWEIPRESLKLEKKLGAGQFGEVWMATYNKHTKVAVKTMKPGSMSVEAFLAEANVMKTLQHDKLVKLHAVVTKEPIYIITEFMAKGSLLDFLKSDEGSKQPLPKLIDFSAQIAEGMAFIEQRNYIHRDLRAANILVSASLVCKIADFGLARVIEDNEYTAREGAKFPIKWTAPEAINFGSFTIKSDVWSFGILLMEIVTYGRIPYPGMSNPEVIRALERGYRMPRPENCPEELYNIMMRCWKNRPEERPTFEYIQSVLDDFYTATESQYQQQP

Row | SH2 binding enrichment [14] | SH2 binding enrichment [15] | SH2 binding enrichment [16] | Sequence | phosphorylation enrichment [1] | phosphorylation enrichment [2] | phosphorylation enrichment [3] | phosphorylation enrichment [4] | phosphorylation enrichment [5] | phosphorylation enrichment [6] | phosphorylation enrichment [7] | phosphorylation enrichment [8] | phosphorylation enrichment [9] | phosphorylation enrichment [10] | phosphorylation enrichment [11] | phosphorylation enrichment [12] | phosphorylation enrichment [13]
1 | 0.815 | 0.568 | 0.615 | MKGDYYRYLAE [YWHAG_Y131] | 1.07 | 1.09 | 1.02 | 8.62 | 6.43 | 0.501 | 0.89 | 0.741 | 0.779 | 3.29 | 0.718 | 0.686 | 0.639
2 | 0.884 | 0.841 | 1.87 | FPLAEYTEVKT [ALDH1A3_Y497_A493P_YF] | 1.34 | 0.685 | 0.575 | 0.671 | 0.82 | 0.516 | 0.968 | 0.502 | 0.54 | 1.01 | 0.4 | 0.709 | 0.528
3 | 1.1 | 0.933 | 0.762 | FSAPNYCYRCG [PPP2CA_Y265] | 0.656 | 0.498 | 0.455 | 0.446 | 0.45 | 0.327 | 0.564 | 0.458 | 0.414 | 0.501 | 0.423 | 0.452 | 0.382
4 | 1.56 | 2.11 | 0.97 | HKGASYVFRLS [PTPRD_Y891] | 1 | 0.593 | 0.791 | 0.536 | 0.818 | 0.412 | 1.34 | 0.539 | 0.468 | 1.26 | 0.512 | 0.935 | 0.583
5 | 1.07 | 0.752 | 0.729 | MSRDIYSTDYY [NTRK1_Y676] | 1.83 | 6.24 | 8.84 | 4.81 | 3.6 | 1.5 | 0.933 | 4.75 | 3.99 | 1.01 | 9.04 | 0.733 | 5.12
6 | 1.01 | 1.03 | 1.11 | RASQEYHIVKK [PDZD2_Y557_S552R] | 0.772 | 0.754 | 0.471 | 0.881 | 0.784 | 0.571 | 1.08 | 0.289 | 0.607 | 1.06 | 0.356 | 0.841 | 0.643
7 | 0.8 | 0.626 | 0.352 | EYGSGYPNDPK [RNASEH2A_Y210_D205E] | 0.697 | 0.369 | 0.458 | 0.433 | 0.474 | 0.505 | 0.794 | 0.446 | 0.593 | 0.672 | 0.425 | 0.574 | 0.386
8 | 0.841 | 1.39 | 0.995 | HNLDFYKETTN [FGFR3_Y648_K650E_YF] | 1.23 | 0.891 | 0.496 | 0.645 | 0.915 | 0.656 | 1.5 | 0.731 | 0.53 | 1.48 | 0.662 | 1.14 | 1.14
